Experimental data taken from the Immune Epitope Database (IEDB).

Columns and labels:
Assay in all cases: IEDB peptide-MHC binding, purified MHC/competitive/radioactivity; ≥ and ≤ were set here for values at or beyond the usual limits of such assays
Settings in all cases: source organism: Bordetella pertussis
[1] = target: HLA-A*02:01
[2] = target: HLA-B*35:01
[3] = target: HLA-B*57:01
[4] = target: HLA-B*07:02
[5] = target: HLA-B*44:03

For ALAAIASAA, the IC50 [1] was 12.3 µM.
Sequence DATLVGAKF has an IC50 [2] of 59.8 µM.
Sequence HFIGYIYEV has an IC50 [1] of 0.0161 µM.
For HVSKEEQYY, the IC50 [3] was no less than 70.4 µM and the IC50 [2] was 69.9 µM.
Sequence KPDRAARVA has an IC50 [4] of 0.461 µM.
LLGSHVARA showed an IC50 [1] of 2.35 µM.
Work on QAIVVGKDL yielded an IC50 [5] of 31.8 µM.
In the case of RTRGQARSG, the IC50 [3] is reported as 11.8 µM.
In the case of RVRALAWLL, the IC50 [4] is reported as 0.413 µM and the IC50 [3] is reported as 0.709 µM.
For VEDIGGKNY, the IC50 [5] was 16 µM.
In the case of YENKSSTPL, the IC50 [5] is reported as 37.5 µM.
With YIWGLYQTY the IC50 [5] was 0.471 µM.
